Experimental findings from PMC12957798 (2025) are described below.

Experiment [1] addresses T1, EGFR (Homo sapiens, UniProt P00533). Nature of the experiment: BLI.
Experiment [2] addresses T1, EGFR. The experiment is described as follows: SPR.

On to SFMPLSIPIMCKMLSKC (biotinylated EGFR), for which the Kd in experiment [1] turned out to be 229 nM. Take SFMPLSIPIMCKMLSKC: in experiment [2], binding was characterised by a dissociation constant (Kd) of 148 nM.
